Assay results taken from PMC9724678, “The Autophagy Receptor TAX1BP1 (T6BP) improves antigen presentation by MHC‐II molecules” (EMBO Reports, 2022).

Biological target: T1, GFP-T6BP (TAX1BP1 / TRAF6-binding protein fused to GFP) (UniProt Q86VP1 1-789)
T1 construct: plasmid a gift from F. Buss; it is written both GFP-T6BP and T6BP-GFP; also called T6BP-GFP; source: HeLa-CIITA, transfected, in lysate
Test: co-IP; GFP-T6BP or GFP alone from transfected HeLa-CIITA lysate on GFP-Trap beads, Western blot for CANX
Conditions: partners not purified

T1 sequence (Q86VP1 whole entry, the tested form may be a part): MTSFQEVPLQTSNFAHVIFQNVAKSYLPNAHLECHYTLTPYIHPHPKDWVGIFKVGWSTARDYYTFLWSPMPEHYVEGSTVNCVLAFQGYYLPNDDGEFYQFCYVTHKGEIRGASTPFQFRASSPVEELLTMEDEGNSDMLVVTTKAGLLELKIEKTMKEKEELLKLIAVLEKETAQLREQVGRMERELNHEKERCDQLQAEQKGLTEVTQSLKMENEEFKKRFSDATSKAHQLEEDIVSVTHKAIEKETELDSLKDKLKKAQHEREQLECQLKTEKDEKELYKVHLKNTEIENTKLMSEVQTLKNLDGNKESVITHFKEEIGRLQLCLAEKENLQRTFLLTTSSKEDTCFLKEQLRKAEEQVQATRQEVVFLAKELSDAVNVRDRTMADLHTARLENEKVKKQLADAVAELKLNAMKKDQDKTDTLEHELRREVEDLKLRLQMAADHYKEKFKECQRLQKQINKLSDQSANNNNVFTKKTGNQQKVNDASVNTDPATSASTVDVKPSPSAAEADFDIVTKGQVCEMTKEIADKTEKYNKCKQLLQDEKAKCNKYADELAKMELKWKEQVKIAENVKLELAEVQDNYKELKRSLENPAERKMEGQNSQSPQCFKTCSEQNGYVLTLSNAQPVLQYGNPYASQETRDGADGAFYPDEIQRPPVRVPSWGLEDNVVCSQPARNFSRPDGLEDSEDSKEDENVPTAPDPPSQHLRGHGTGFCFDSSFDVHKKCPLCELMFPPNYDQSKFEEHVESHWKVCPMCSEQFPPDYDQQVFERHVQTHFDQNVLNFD

B1: Calnexin (CANX), endogenous (natural protein, UniProt P27824 21-592, looked up)
chain: HDGHDDDVIDIEDDLDDVIEEVEDSKPDTTAPPSSPKVTYKAPVPTGEVYFADSFDRGTLSGWILSKAKKDDTDDEIAKYDGKWEVEEMKESKLPGDKGLVLMSRAKHHAISAKLNKPFLFDTKPLIVQYEVNFQNGIECGGAYVKLLSKTPELNLDQFHDKTPYTIMFGPDKCGEDYKLHFIFRHKNPKTGIYEEKHAKRPDADLKTYFTDKKTHLYTLILNPDNSFEILVDQSVVNSGNLLNDMTPPVNPSREIEDPEDRKPEDWDERPKIPDPEAVKPDDWDEDAPAKIPDEEATKPEGWLDDEPEYVPDPDAEKPEDWDEDMDGEWEAPQIANPRCESAPGCGVWQRPVIDNPNYKGKWKPPMIDNPSYQGIWKPRKIPNPDFFEDLEPFRMTPFSAIGLELWSMTSDIFFDNFIICADRRIVDDWANDGWGLKKAADGAAEPGVVGQMIEAAEERPWLWVVYILTVALPVFLVILFCCSGKKQTSGMEYKKTDAPQPDVKEEEEEKEEEKDKGDEEEEGEEKLEEKQKSDAEEDGGTVSQEEEDRKPKAEEDEILNRSPRNRKPRRE
notes: ER-resident chaperone calnexin, endogenous; source: endogenous, HeLa-CIITA, DG-75 (B) and KG-1 (dendritic-like) lysates; endogenous in fixed HeLa-CIITA cells
  fold enrichment against the GFP control: 3 fold
